In patent publication US20240317868A1 (Boehringer Ingelheim, published 2024):
Where a chain is given by its changes, count along the chain named. Numbers in names are those of the source. Like-named read-outs stand apart in the source and are kept apart here.

Tests used:
[1] = molecular target: human IL1RAP on cells (human) (UniProt Q9NPH3); test: cell-based or functional assay
human IL1RAP [2] = molecular target: T1, human IL1RAP (human, UniProt Q9NPH3 21-367, limits assumed, biotinylated in the ELISA screens (site not stated)); test: ELISA: Fab constant (4 nM) captured on Fd coat (67 nM), Biot-hu IL1RAP titrated from 6.8 nM (the concentration axis is the antigen), SA-HRP 1:4000
T1 construct: also called huIL1RAP; IL1RAP antigen
T1 sequence (looked up): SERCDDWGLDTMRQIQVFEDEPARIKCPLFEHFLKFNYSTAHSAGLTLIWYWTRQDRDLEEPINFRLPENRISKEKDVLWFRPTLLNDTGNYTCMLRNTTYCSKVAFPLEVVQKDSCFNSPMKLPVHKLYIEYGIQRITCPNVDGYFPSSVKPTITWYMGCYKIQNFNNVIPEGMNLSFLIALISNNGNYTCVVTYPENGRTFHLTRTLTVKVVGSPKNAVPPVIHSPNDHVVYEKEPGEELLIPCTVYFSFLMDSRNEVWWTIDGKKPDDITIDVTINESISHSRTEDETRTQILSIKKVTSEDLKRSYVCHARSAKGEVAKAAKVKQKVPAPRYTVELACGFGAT

human IL1RAP [3] = molecular target: T1, human IL1RAP; test: as above; remark: listed apart in the source
human IL1RAP [4] = molecular target: T1, human IL1RAP; test: ELISA of point mutant IgG (light chain mutant with the parental chimeric heavy chain, CHO-E expression), one bar each, concentration not given
Excerpt: For light chain 13 variants (T25A, E27Q, N28S, N30S, Y50A, K52S, T53Y, A55Q, E56S, H90Q, H91S, G93S and S95P) and 19 heavy chain variants (Y27G, I28T, L30S, T31S, W33Y, M34I, N35S, Q50R, F521, A541, S55L, D56G, S57I, T58A, N61A, E62Q, M63K, K65Q and D66G) were generated separately in the vector pTT5 (See FIG. 3A/B). The light chain mutants were paired with the parental chimeric heavy chain and heavy chain mutants were paired with parental chimeric light chain for expression analysis in CHO-E cells for 7 days. The resulting variants were evaluated for binding in ELISA experiments and compared to the parental chimeric IgG which has mouse variable region but human constant regions. For light chain variants, six point mutants VK-T25A, E27Q, N28S, N30S, K52S and T53Y depicted binding similar to chimeric IgG (+10% control; FIG. 3A) while for heavy chain […] point mutants VH-I28T, L30S, M34I, N35S, D56G, T58A, N61A, E62Q, M63K, K65Q and D66G depicted similar binding as chimeric IgG (+10% control; FIG. 3B).

human IL1RAP [5] = molecular target: T1, human IL1RAP; test: hKD, method not stated
human IL1RAP [6] = molecular target: T1, human IL1RAP; test: ELISA, antigen titration: Fab (1:5) captured on anti-Fd coat 700 ng/ml (4.7 nM), IL1RAP antigen titrated (the concentration axis is the antigen), SA-HRP 1:4000

B1: CAN04 (antibody, INN chains, looked up, V domains shown)
VH: QVQLVQSGAEVKKPGSSVKVSCKASGYAFTSSWMNWVRQAPGQGLEWMGRIYPGDGNTHYAQKFQGRVTLTADKSTSTAYMELSSLRSEDTAVYYCGEGYLDPMDYWGQGTLVTVSS
VL: DIQMTQSPSSLSASVGDRVTITCQASQGINNYLNWYQQKPGKAPKLLIHYTSGLHAGVPSRFSGSGSGTDYTLTISSLEPEDVATYYCQQYSILPWTFGGGTKVEIK
B1 gave an IC90 IFN-gamma release (WB), IL-33 [1] greater than 1000 nM, an IC90 IL-8 release (NCI-H292), IL1-B [1] greater than 1000 nM and an IC90 IL-8 release (NCI-H292), IL-1A [1] greater than 1000 nM. For the same binder, the IC90 IL-8 release (NCI-H292), IL-33 [1] was 46 nM, the IC90 IL-8 release (NCI-H292), IL-36G [1] was greater than 1000 nM and the IC90 MIP-1B release (WB), IL1-B [1] was 125 nM. It also gave an IC90 MIP-1B release (WB), IL-1A [1] greater than 1000 nM, an IC90 MIP-1B release (WB), IL-36G [1] of 43 nM and an IC90 Nf-KB activation (HEK-Blue), IL1-B [1] of 56 nM. The IC90 Nf-KB activation (HEK-Blue), IL-1A [1] was greater than 1000 nM, the IC90 Nf-KB activation (HEK-Blue), IL-33 [1] was greater than 1000 nM and the IC90 Nf-KB activation (HEK-Blue), IL-36G [1] was greater than 1000 nM.

B2: IL1RAP G011 chimeric Fab (Fab, V domains shown)
VH: QVHLQQSGPELVRPGTSVKISCEASGYIFLTYWMNWVKQRPGQGLEWIGQIFPASDSTYYNEMFKDKARFTVDKSSSTAYMQFSSLTSEDTAVYFCARSGPYSYYAGGYALDYWGQGTSVTVSS
VL: DIQMTQSPASLSASVGETVTITCRTSENINSYLAWYQQKQGKSPQLLVHYAKTLAEGVPSRFSGSGSGTQFSLKINSLKPEDFGSYYCQHHYGTSLTFGAGTKLELK
notes: Mouse VK and VH fused to human Ck and CH1; expressed in E. coli (periplasmic extract or supernatant); also called mouse Fab; chimeric parent anti-IL1RAP GO11 Fab
With B2 the “EC50 (read off the curve)” value (human IL1RAP [2]) was roughly 0.4 nM and the “EC50 (read off the curve)” value (human IL1RAP [3]) was roughly 0.4 nM.

B3: VK-Y50A (antibody, V domains shown)
VH: B2 VH
VL: DIQMTQSPASLSASVGETVTITCRTSENINSYLAWYQQKQGKSPQLLVHAAKTLAEGVPSRFSGSGSGTQFSLKINSLKPEDFGSYYCQHHYGTSLTFGAGTKLELKR
notes: germlining point mutant, paired with the parental chimeric heavy chain; also called GO11 chimeric IgG, light chain point mutant Y50A; copies: 2 + 2
B3: binds (human IL1RAP [4]).

B4: VK-H91S (antibody, V domains shown)
VH: B2 VH
VL: B3 VL with A50Y, H91S
notes: germlining point mutant, paired with the parental chimeric heavy chain; also called GO11 chimeric IgG, light chain point mutant H91S; copies: 2 + 2
B4: binds (human IL1RAP [4]).

B5: VK-A55Q (antibody, V domains shown)
VH: B2 VH
VL: B3 VL with A50Y, A55Q
notes: germlining point mutant, paired with the parental chimeric heavy chain; also called GO11 chimeric IgG, light chain point mutant A55Q; copies: 2 + 2
B5: binds (human IL1RAP [4]).

B6: GO11 chimeric IgG, light chain point mutant VK-K52S (antibody, V domains shown)
VH: B2 VH
VL: B2 VL with K52S
notes: Light chain mutant paired with the parental chimeric heavy chain; IgG backbone, expressed in CHO-E
B6: binds (human IL1RAP [4]).

B7: GO11 chimeric IgG, light chain point mutant VK-N28S (antibody, V domains shown)
VH: B2 VH
VL: B2 VL with N28S
notes: as for B6
B7: binds (human IL1RAP [4]).

B8: GO11 chimeric IgG, light chain point mutant VK-N30S (antibody, V domains shown)
VH: B2 VH
VL: B2 VL with N30S
notes: as for B6
B8: binds (human IL1RAP [4]).

B9: VK-H90Q (antibody, V domains shown)
VH: B2 VH
VL: B3 VL with A50Y, H90Q
notes: germlining point mutant, paired with the parental chimeric heavy chain; also called GO11 chimeric IgG, light chain point mutant H90Q; copies: 2 + 2
B9: binds (human IL1RAP [4]).

B10: VK-S95P (antibody, V domains shown)
VH: B2 VH
VL: B3 VL with A50Y, S95P
notes: germlining point mutant, paired with the parental chimeric heavy chain; also called GO11 chimeric IgG, light chain point mutant S95P; copies: 2 + 2
B10: binds (human IL1RAP [4]).

B11: VK-G93S (antibody, V domains shown)
VH: B2 VH
VL: B3 VL with A50Y, G93S
notes: germlining point mutant, paired with the parental chimeric heavy chain; also called GO11 chimeric IgG, light chain point mutant G93S; copies: 2 + 2
B11: binds (human IL1RAP [4]).

B12: GO11 chimeric IgG, light chain point mutant VK-T25A (antibody, V domains shown)
VH: B2 VH
VL: B2 VL with T25A
notes: as for B6
B12: binds (human IL1RAP [4]).

B13: VK-E56S (antibody, V domains shown)
VH: B2 VH
VL: B3 VL with A50Y, E56S
notes: germlining point mutant, paired with the parental chimeric heavy chain; also called GO11 chimeric IgG, light chain point mutant E56S; copies: 2 + 2
B13: binds (human IL1RAP [4]).

B14: GO11 chimeric IgG, light chain point mutant VK-E27Q (antibody, V domains shown)
VH: B2 VH
VL: B2 VL with E27Q
notes: as for B6
B14: binds (human IL1RAP [4]).

B15: CAN04 (antibody, V domains shown)
VH: QVQLQQSGPELLKPGASVKISCKASGYAFSSSWMNWVKQRPGKGLEWIGRIYPGDGNTHYSGKFKGKATLTADKSSSIAYMQLSSLTSEDSAVYFCGEGYLDPMDYWGQGTSVTVSS
VL: DIQMTQTTSSLSASLGDRVTISCSASQGINNYLNWYQQKPDGTVKLLIHYTSGLHAGVPSRFSGSGSGTDYSLTISNLEPEDVATYYCQQYSILPWTFGGGTKLEIKR
For B15, the Kd (human IL1RAP [5]) was 0.2 nM.

B16: engrafted Fab (GO11 CDRs on IGKV1-39*01 and IGHV1-69*02) (Fab, V domains shown)
VH: QVQLVQSGAEVKKPGSSVKVSCKASGYIFLTYWMNWVRQAPGQGLEWMGQIFPASDSTYYNEMFKDRVTITADKSTSTAYMELSSLRSEDTAVYYCARSGPYSYYAGGYALDYWGQGTLVTVSS
VL: DIQMTQSPSSLSASVGDRVTITCRTSENINSYLAWYQQKPGKAPKLLIYYAKTLAEGVPSRFSGSGSGTDFTLTISSLQPEDFATYYCQHHYGTSLTFGQGTKLEIK
notes: Fab from E. coli periplasmic extract; constant parts not specified; also called HUMANIZED/GRAFT 005-G011 #A1
B16: binds (human IL1RAP [6]).
